Consider four molecules from patent US20150266963A1 (ARGEN X B V, published 2015).

The target of assay [1] is T1, human CD70 expressed on the surface of cells (human, UniProt P32970 1-193).
T1 construct: whole, on cells; also called cell surface expressed CD70; CD70 on cells
T1 sequence (looked up): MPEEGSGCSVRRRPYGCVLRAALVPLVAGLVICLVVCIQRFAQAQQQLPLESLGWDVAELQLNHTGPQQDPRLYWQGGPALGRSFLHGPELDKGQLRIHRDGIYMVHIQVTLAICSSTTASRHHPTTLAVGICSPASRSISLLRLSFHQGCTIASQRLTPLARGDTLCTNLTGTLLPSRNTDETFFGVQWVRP
Put plainly: flow cytometry on 786-O cells, anti-human Fc-FITC. As to the method: Fluorescence of 10,000 cells/condition was measured using a flow cytometer and the median fluorescence was plotted.

Assay [2] concerns the target T1, human CD70 expressed on the surface of …. Put plainly: cell-based or functional assay.
Assay [3] has the same target. Put plainly: cell-based or functional assay. The source holds these as a separate data set.
Assay [4] addresses T2, recombinant human CD70 (Flag-TNC-CD70) (human, UniProt P32970 39-193).
T2 construct: extracellular domain; Captured by anti-Flag mAb in ELISA; as 'recombinant human CD70' immobilised on Biacore CM5 chips; TNC is for trimerisation; also called recombinant CD70; human recombinant CD70; not shown: Flag tag and TNC trimerisation domain
T2 sequence (looked up): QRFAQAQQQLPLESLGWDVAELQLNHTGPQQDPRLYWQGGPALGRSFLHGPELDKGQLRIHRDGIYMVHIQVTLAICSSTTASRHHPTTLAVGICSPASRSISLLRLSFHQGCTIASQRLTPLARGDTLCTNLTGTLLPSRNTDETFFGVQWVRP
Description: inhibition ELISA; Flag-TNC-CD70 captured by anti-Flag mAb; competitor CD27-Fc. How it is done:
From selected phage transfected into TG1, individual colonies were picked randomly for growth in 96 well plates. After IPTG induction according to standard protocols periplasmic fractions (penis) containing Fabs were prepared. […] In this assay, Flag-TNC-CD70 is captured by an anti-Flag mAb and binding of CD27-Fc is detected via a biotinylated anti-CD27 mAb and strep-HRP in the absence or presence of CD70 Fabs (FIGS. 2 and 3) or CD70 mAbs (FIG. 4). In FIG. 2B it can be seen that 27B3, which has an identical VH as 9D1, but contains a somewhat different light chain, seems to block binding of CD27 to CD70 more efficiently, which was in line with the better off rate of this Fab as measured on Biacore (data not shown). Table 3 indicates the blocking potency (expressed as IC50) for the various llama-human chimeric mAbs tested in the CD70 inhibition ELISA. […] FIG. 3 is a composite of an experiment testing llama CD70 Fabs for blocking activity (in the inhibition ELISA, see white bars) and for CD70 binding (binding ELISA, black bars). For the binding ELISA, Flag-TNC-CD70 is captured by an anti-Flag mAb and binding of the Fabs is detected using an anti-myc-HRP mAb, which recognizes the MYC tag fused to the C-terminus of the Fd fragment. For comparison purposes, known monoclonal antibodies to CD70 (SGN70 described in US 2010/0129362 A1, clone 1F6; and MDX69A7 described in WO2008/074004 FIGS. 5A and 5B) were tested in parallel. […] Of interest is clone 59D10, which as Fab has no blocking activity, but when converted into a chimeric IgG was antagonistic (see Table 3). Amino acid sequences of the VH and VL domains of binding and blocking llama-derived Fab clones are shown elsewhere herein (Tables 6-9).

Assay [5] deals with T3, rhesus recombinant CD70 (FLAG-TNC-rhesus CD70) (rhesus).
T3 construct: also called rhesus Flag-TNC-CD70
Description: inhibition ELISA; FLAG-TNC-rhesus CD70; competitor CD27-Fc. The source says:
In this assay, Flag-TNC-CD70 is captured by an anti-Flag mAb and binding of CD27-Fc is detected via a biotinylated anti-CD27 mAb and strep-HRP in the absence or presence of CD70 Fabs (FIGS. 2 and 3) or CD70 mAbs (FIG. 4). In FIG. 2B it can be seen that 27B3, which has an identical VH as 9D1, but contains a somewhat different light chain, seems to block binding of CD27 to CD70 more efficiently, which was in line with the better off rate of this Fab as measured on Biacore (data not shown). Table 3 indicates the blocking potency (expressed as IC50) for the various llama-human chimeric mAbs tested in the CD70 inhibition ELISA. […] FIG. 3 is a composite of an experiment testing llama CD70 Fabs for blocking activity (in the inhibition ELISA, see white bars) and for CD70 binding (binding ELISA, black bars). For the binding ELISA, Flag-TNC-CD70 is captured by an anti-Flag mAb and binding of the Fabs is detected using an anti-myc-HRP mAb, which recognizes the MYC tag fused to the C-terminus of the Fd fragment. For comparison purposes, known monoclonal antibodies to CD70 (SGN70 described in US 2010/0129362 A1, clone 1F6; and MDX69A7 described in WO2008/074004 FIGS. 5A and 5B) were tested in parallel. […] Of interest is clone 59D10, which as Fab has no blocking activity, but when converted into a chimeric IgG was antagonistic (see Table 3). […]

For assay [6], the target named is T1, human CD70 expressed on the surface of …. Description: flow cytometry on MHH-PREB-1 cells; anti-human IgG-FITC. How it is done:
In a further experiment, NHL-derived MHH-PREB-1 cells (1W cells) were incubated with a concentration gradient of chimeric llama-human CD70 inhibiting mAbs (20 μg/ml-0.25 ng/ml) and binding of the mAbs to the cells was detected using anti-human IgG-FITC antibody.

In assay [7] the target is T2, recombinant human CD70 (Flag-TNC-CD70). Put plainly: Biacore; recombinant human CD70 on CM5 chip; Fab from papain digestion. How it is done:
Recombinant human CD70 was immobilized on a CM5 Biacore chip. The immobilization was performed in accordance with a method provided by Biacore and by using the NHS/EDC kit (Biacore AB): after activation of the chip, a solution of 50 μg/ml of recombinant CD70 in 10 mM acetate buffer with pH of 5 was prepared and 1 μl of this solution (50ng) was injected resulting in a surface density of approximately 1000 RU.
Fabs were prepared for the CD70 mAbs ARGX-110, MDX1411 and SGN70 by papain digestion. These Fabs, at a concentration of approximately 100-400 μg/ml, were diluted 6-fold in HEPES-buffered saline (0.1M HEPES, 1.5M NaCl, 30 mM EDTA, 0.5% v/v surfactant P20). They were injected (30 μl) and passed through the flow cells at a flow rate of 30 μl/min. After binding of the Fab to CD70, the off-rate was monitored for a period of 10 minutes. After dissociation, the flow cell surfaces were regenerated by injecting 5 μl of 10 mM NaOH. Sometimes multiple injections of NaOH were needed to regenerate the surfaces depending on the affinity of the Fabs. Off-rate analysis was done by applying the BIAevaluation software. First, the sensogram of the blank runs were subtracted from those obtained with the coated flow cell.

B1: 9G2 chimeric llama-human mAb (antibody, human IgG1, V domains shown)
VH: QVQLVESGGGLMQPGGSLRLSCAASGFTFSSSAMSWVRQAPGKGLEWVSSIYSDSSYTYYADSVKSRFTISTDNAKNTLYLQMNSLKPDDTAVYYCAGSSDYEGSFASWGQGTQVTVSS
VL: QSVVTQPPSLSASPGSSVRLTCTLSSGNSVGNYDISWYQQKAGSPPRYLLYYYSDSVKHQGSGVPSRFSGSSDASANAGLLLISGLQPEDEADYYCSAYKSGSHVFGGGTKLTVLG
Consider B1, for which, in assay [1], the “EC50 (read off the curve)” value was approximately 0.1 µg/mL. Moreover, the “IC50 (ng/ml), IL-8 secretion in Raji / HT1080-CD27 co-culture assay” value in assay [2] was found to be 3 ng/mL. In addition, the “IC50, IL-8 secretion in Raji / HT1080-CD27 co-culture assay” value in assay [3] was found to be 0.02 nM. In assay [4], the IC50 turned out to be 0.04 µg/mL.

B2: 57B6 chimeric llama-human mAb (antibody, human IgG1, V domains shown)
VH: QLQLVESGGGLVQPGGSLRLSCAASGFSFSHYAMSWVRQAPGKGLEWVSGDNTYDGGTRYQDSVKGRFTISRDNGKNTLYLQMNSLKPEDTAVYYCAKDTGRGIMGEYGMDYWGKGTLVTVSS
VL: QTVVTQEPSLSVSPGGTVTLTCGLKSGSVTSSNYPAWYQQTPGQAPRLLIYNTNSRHSGVPSRFSGSISGNKAALTITGAQPEDEADYYCALYMGSGSANAMFGGGTHLTVLG
For B2, the “IC50 (ng/ml), IL-8 secretion in Raji / HT1080-CD27 co-culture assay” value in assay [2] was found to be 5 ng/mL. Also, the IC50 in assay [5] was determined as 0.135 µg/mL; in assay [4], 0.154 µg/mL. Moreover, the EC50 in assay [6] came to 0.083 µg/mL.

B3: ARGX-110 Fab (Fab, V domains shown)
VH: EVQLVESGGGLVQPGGSLRLSCAASGFTFSVYYMNWVRQAPGKGLEWVSDINNEGGTTYYADSVKGRFTISRDNSKNSLYLQMNSLRAEDTAVYYCARDAGYSNHVPIFDSWGQGTLVTVSS
VL: QAVVTQEPSLTVSPGGTVTLTCGLKSGSVTSDNFPTWYQQTPGQAPRLLIYNTNTRHSGVPDRFSGSILGNKAALTITGAQADDEAEYFCALFISNPSVEFGGGTQLTVLG
As for B3, in assay [7], the koff turned out to be 0.00014 s⁻¹.

B4: 59D10 chimeric llama-human mAb (antibody, human IgG1, V domains shown)
VH: EVQLVESGGGLVQPGGSLRLSCAASELSFSISEMTWVRQAPGKGLEWVSGISGVTGGSSTSYADSVKGRFTISRDNDKNTLYLQMNSLIPEDTAVYYCATTSGTYYFIPEYEYWGQGTQVTVSS
VL: QSVLTQPPSVSGSPGKTVTISCAGTSSDVGYGYYVSWYQQFPGMAPKLLIYDVNKRASGIADRFSGSKAGNTASLTISGLQSEDEADYYCASYRSSANAVFGGGTHLTVLG
For B4, the “IC50 (ng/ml), IL-8 secretion in Raji / HT1080-CD27 co-culture assay” value in assay [2] stood at 10 ng/mL. In assay [6], this molecule returned an EC50 of 0.074 µg/mL. Besides, the IC50 in assay [4] came to 0.107 µg/mL.
